In patent US20220177596A1 (Bristol-Myers Squibb, published 2022):
Where a chain is given by its changes, count along the chain named.

B1: 5F11-45-IgG1.3f (antibody)
heavy: QVQLVQSGAEVKKPGSSVKVSCKASGYTFTDLSMHWVRQAPGQGLEWMGYITPSSGYTAYNQKFKGKTTLTADKSTSTAYMELSSLRSEDTAVYYCARLILQRGAYWGQGTLVTVSSASTKGPSVFPLAPSSKSTSGGTAALGCLVKDYFPEPVTVSWNSGALTSGVHTFPAVLQSSGLYSLSSVVTVPSSSLGTQTYICNVNHKPSNTKVDKRVEPKSCDKTHTCPPCPAPEAEGAPSVFLFPPKPKDTLMISRTPEVTCVVVDVSHEDPEVKFNWYVDGVEVHNAKTKPREEQYNSTYRVVSVLTVLHQDWLNGKEYKCKVSNKALPAPIEKTISKAKGQPREPQVYTLPPSREEMTKNQVSLTCLVKGFYPSDIAVEWESNGQPENNYKTTPPVLDSDGSFFLYSKLTVDKSRWQQGNVFSCSVMHEALHNHYTQKSLSLSPGK
light: DIVLTQSPDSLAVSLGERATINCRASKNVDSYGNSFMHWYQQKPGQPPKLLIYRASNLESGVPDRFSGSGSGTDFTLTISSLQAEDVAVYYCQQSNEDPLTFGQGTKLEIKRTVAAPSVFIFPPSDEQLKSGTASVVCLLNNFYPREAKVQWKVDNALQSGNSQESVTEQDSKDSTYSLSSTLTLSKADYEKHKVYACEVTHQGLSSPVTKSFNRGEC
B2: humanized Y1238 hz24 (hz-HC5 / hz-LC4), IgG1.3f (antibody, V domains shown)
VH: QVQLVQSGAEVKKPGASVKVSCKASGYAFTNYLIEWVRQRPGQGLEWMGVINPGSGGTNYNEKFKGRVTMTADKSISTAYMELSRLRSDDTAVYYCARSQLGRRFDYWGQGTLVTVSS
VL: DIQMTQSPSSLSASVGDRVTITCKASQDVRTGVAWYQQKPGQSPKLLIYSASYRNTGVPSRFSGSRSGTDFTFTISSLQAEDIAVYYCQQHYSPPYTFGGGTKVEIK
notes: IgG1.3f heavy constant, common CL; expression supernatant; also called Sup 24
B3: humanized Y1238 hz49 (hz-HC10 / hz-LC4), IgG1.3f (antibody, V domains shown)
VH: B2 VH with A72R
VL: B2 VL
notes: IgG1.3f heavy constant, common CL; expression supernatant; also called Sup 49
B4: humanized Y1238 hz27 (hz-HC6 / hz-LC2), IgG1.3f (antibody, V domains shown)
VH: B2 VH with M70L
VL: B2 VL with Q42K, S43A, A80P, V85T
notes: IgG1.3f heavy constant, common CL; expression supernatant; also called Sup 27
B5: humanized Y1238 hz42 (hz-HC9 / hz-LC2), IgG1.3f (antibody, V domains shown)
VH: B2 VH with K12V, M70L, I76S, E82Q, Y95F, L113T
VL: B2 VL with Q42K, S43A, A80P, V85T
notes: IgG1.3f heavy constant, common CL; expression supernatant; also called Sup 42
B6: humanized Y1238 hz40 (hz-HC8 / hz-LC5), IgG1.3f (antibody, V domains shown)
VH: B2 VH with K12V, M70L, I76S, E82Q, Y95F
VL: B2 VL with S43A, A80P
notes: IgG1.3f heavy constant, common CL; expression supernatant; also called Sup 40
B7: humanized Y1238 hz51 (hz-HC11 / hz-LC1), IgG1.3f (antibody, V domains shown)
VH: B2 VH with A72R, I76S, Y95F
VL: B2 VL with Q42K, S43A, R66G, A80P, V85T
notes: IgG1.3f heavy constant, common CL; expression supernatant; also called Sup 51
B8: humanized Y1238 hz35 (hz-HC7 / hz-LC5), IgG1.3f (antibody, V domains shown)
VH: B2 VH with K12V, I76S, E82Q, Y95F
VL: B2 VL with S43A, A80P
notes: IgG1.3f heavy constant, common CL; expression supernatant; also called Sup 35
B9: humanized Y1238 hz29 (hz-HC6 / hz-LC4), IgG1.3f (antibody, V domains shown)
VH: B2 VH with M70L
VL: B2 VL
notes: IgG1.3f heavy constant, common CL; expression supernatant; also called Sup 29
B10: humanized Y1238 hz43 (hz-HC9 / hz-LC3), IgG1.3f (antibody, V domains shown)
VH: B2 VH with K12V, M70L, I76S, E82Q, Y95F, L113T
VL: B2 VL with A80P
notes: IgG1.3f heavy constant, common CL; expression supernatant; also called Sup 43
B11: humanized Y1238 hz54 (hz-HC11 / hz-LC4), IgG1.3f (antibody, V domains shown)
VH: B2 VH with A72R, I76S, Y95F
VL: B2 VL
notes: IgG1.3f heavy constant, common CL; expression supernatant; also called Sup 54
B12: humanized Y1238 hz50 (hz-HC10 / hz-LC5), IgG1.3f (antibody, V domains shown)
VH: B2 VH with A72R
VL: B2 VL with S43A, A80P
notes: IgG1.3f heavy constant, common CL; expression supernatant; also called Sup 50
B13: humanized Y1238 hz36 (hz-HC8 / hz-LC1), IgG1.3f (antibody, V domains shown)
VH: B2 VH with K12V, M70L, I76S, E82Q, Y95F
VL: B2 VL with Q42K, S43A, R66G, A80P, V85T
notes: IgG1.3f heavy constant, common CL; expression supernatant; also called Sup 36
B14: humanized Y1238 hz44 (hz-HC9 / hz-LC4), IgG1.3f (antibody, V domains shown)
VH: B2 VH with K12V, M70L, I76S, E82Q, Y95F, L113T
VL: B2 VL
notes: IgG1.3f heavy constant, common CL; expression supernatant; also called Sup 44
B15: humanized Y1238 hz33 (hz-HC7 / hz-LC3), IgG1.3f (antibody, V domains shown)
VH: B2 VH with K12V, I76S, E82Q, Y95F
VL: B2 VL with A80P
notes: IgG1.3f heavy constant, common CL; expression supernatant; also called Sup 33
B16: humanized Y1238 hz46 (hz-HC10 / hz-LC1), IgG1.3f (antibody, V domains shown)
VH: B2 VH with A72R
VL: B2 VL with Q42K, S43A, R66G, A80P, V85T
notes: IgG1.3f heavy constant, common CL; expression supernatant; also called Sup 46
B17: humanized Y1238 hz47 (hz-HC10 / hz-LC2), IgG1.3f (antibody, V domains shown)
VH: B2 VH with A72R
VL: B2 VL with Q42K, S43A, A80P, V85T
notes: IgG1.3f heavy constant, common CL; expression supernatant; also called Sup 47
B18: humanized Y1238 hz52 (hz-HC11 / hz-LC2), IgG1.3f (antibody, V domains shown)
VH: B2 VH with A72R, I76S, Y95F
VL: B2 VL with Q42K, S43A, A80P, V85T
notes: IgG1.3f heavy constant, common CL; expression supernatant; also called Sup 52
B19: humanized Y1238 hz39 (hz-HC8 / hz-LC4), IgG1.3f (antibody, V domains shown)
VH: B2 VH with K12V, M70L, I76S, E82Q, Y95F
VL: B2 VL
notes: IgG1.3f heavy constant, common CL; expression supernatant; also called Sup 39
B20: humanized Y1238 hz28 (hz-HC6 / hz-LC3), IgG1.3f (antibody, V domains shown)
VH: B2 VH with M70L
VL: B2 VL with A80P
notes: IgG1.3f heavy constant, common CL; expression supernatant; also called Sup 28
B21: humanized Y1238 hz37 (hz-HC8 / hz-LC2), IgG1.3f (antibody, V domains shown)
VH: B2 VH with K12V, M70L, I76S, E82Q, Y95F
VL: B2 VL with Q42K, S43A, A80P, V85T
notes: IgG1.3f heavy constant, common CL; expression supernatant; also called Sup 37
B22: humanized Y1238 hz34 (hz-HC7 / hz-LC4), IgG1.3f (antibody, V domains shown)
VH: B2 VH with K12V, I76S, E82Q, Y95F
VL: B2 VL
notes: IgG1.3f heavy constant, common CL; expression supernatant; also called Sup 34
B23: humanized Y1238 hz41 (hz-HC9 / hz-LC1), IgG1.3f (antibody, V domains shown)
VH: B2 VH with K12V, M70L, I76S, E82Q, Y95F, L113T
VL: B2 VL with Q42K, S43A, R66G, A80P, V85T
notes: IgG1.3f heavy constant, common CL; expression supernatant; also called Sup 41
B24: humanized Y1238 hz38 (hz-HC8 / hz-LC3), IgG1.3f (antibody, V domains shown)
VH: B2 VH with K12V, M70L, I76S, E82Q, Y95F
VL: B2 VL with A80P
notes: IgG1.3f heavy constant, common CL; expression supernatant; also called Sup 38
B25: humanized Y1238 hz32 (hz-HC7 / hz-LC2), IgG1.3f (antibody, V domains shown)
VH: B2 VH with K12V, I76S, E82Q, Y95F
VL: B2 VL with Q42K, S43A, A80P, V85T
notes: IgG1.3f heavy constant, common CL; expression supernatant; also called Sup 32
B26: humanized Y1238 hz31 (hz-HC7 / hz-LC1), IgG1.3f (antibody, V domains shown)
VH: B2 VH with K12V, I76S, E82Q, Y95F
VL: B2 VL with Q42K, S43A, R66G, A80P, V85T
notes: IgG1.3f heavy constant, common CL; expression supernatant; also called Sup 31
B27: humanized Y1238 hz26 (hz-HC6 / hz-LC1), IgG1.3f (antibody, V domains shown)
VH: B2 VH with M70L
VL: B2 VL with Q42K, S43A, R66G, A80P, V85T
notes: IgG1.3f heavy constant, common CL; expression supernatant; also called Sup 26
B28: humanized Y1238 hz45 (hz-HC9 / hz-LC5), IgG1.3f (antibody, V domains shown)
VH: B2 VH with K12V, M70L, I76S, E82Q, Y95F, L113T
VL: B2 VL with S43A, A80P
notes: IgG1.3f heavy constant, common CL; expression supernatant; also called Sup 45
B29: humanized Y1238 hz30 (hz-HC6 / hz-LC5), IgG1.3f (antibody, V domains shown)
VH: B2 VH with M70L
VL: B2 VL with S43A, A80P
notes: IgG1.3f heavy constant, common CL; expression supernatant; also called Sup 30
B30: humanized Y1238 hz55 (hz-HC11 / hz-LC5), IgG1.3f (antibody, V domains shown)
VH: B2 VH with A72R, I76S, Y95F
VL: B2 VL with S43A, A80P
notes: IgG1.3f heavy constant, common CL; expression supernatant; also called Sup 55
B31: humanized Y1238 hz53 (hz-HC11 / hz-LC3), IgG1.3f (antibody, V domains shown)
VH: B2 VH with A72R, I76S, Y95F
VL: B2 VL with A80P
notes: IgG1.3f heavy constant, common CL; expression supernatant; also called Sup 53
B32: humanized Y1238 hz48 (hz-HC10 / hz-LC3), IgG1.3f (antibody, V domains shown)
VH: B2 VH with A72R
VL: B2 VL with A80P
notes: IgG1.3f heavy constant, common CL; expression supernatant; also called Sup 48

biological target: T1, human-CD40 monomer (human, UniProt P25942 21-193, limits assumed); test: SPR, Ab captured on protein A, CD40 monomer analyte
T1 construct: also called hCD40-monomer; human-CD40-monomer protein
T1 sequence (P25942 21-193 limits assumed): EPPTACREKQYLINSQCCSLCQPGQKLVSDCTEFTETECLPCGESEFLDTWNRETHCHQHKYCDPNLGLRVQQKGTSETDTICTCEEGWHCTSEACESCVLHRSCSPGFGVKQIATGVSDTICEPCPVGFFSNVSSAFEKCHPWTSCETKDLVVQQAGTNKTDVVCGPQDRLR

Row | Binder | Kd [nM] | koff [s⁻¹] | kon [M⁻¹ s⁻¹]
1 | B1 | 1.6 | 0.00013 | 82000

biological target: T1, human-CD40 monomer; test: SPR 2 pt screen, Ab on protein A
Protocol: The VH sequences were formatted in the context of an IgG1.3f isotype. The Vκ sequences were formatted as a full light chain with a common CL sequence. All 55 combinations of these humanized HC and LC constructs, as well as the chimeric Y1238 molecule were expressed as 3 ml supernatants for binding analysis by SPR. Each of the 56 supernatants, as well as a purified Y1238-chimeric IgG1 antibody, was captured on a protein A sensor chip and tested for binding to two concentrations (i.e., 200 nM and 1000 nM) of hCD40-monomer using BIAcore™ SPR in a screening assay. All antibodies, except for those containing hz-HC3, captured at high levels (>300 RU) using a 100-fold dilution of the expression supernatant, indicating a high antibody titer in the supernatant except for the hz-HC3 samples. The kinetic data for the two concentrations of hCD40-monomer were fit to a 1:1 Langmuir model, to yield estimates of the kinetic and affinity values for these interactions, and for comparison of the different molecules. […] Also, for a given heavy chain, the antibodies with light chains hz-LC1 or hz-LC2 had higher CD40 affinity than those with hz-LC3, hz-LC4 or hz-LC5.

Row | Binder | Kd [nM] | koff [s⁻¹] | kon [M⁻¹ s⁻¹]
2 | B2 | 7.4 | 0.00032 | 43000
3 | B3 | 12 | 0.00048 | 39000
4 | B4 | 3.3 | 0.00013 | 40000
5 | B5 | 5.4 | 0.0002 | 36000
6 | B6 | 6.5 | 0.00026 | 39000
7 | B7 | 6.7 | 0.00025 | 37000
8 | B8 | 9.2 | 0.00037 | 40000
9 | B9 | 6.5 | 0.00028 | 42000
10 | B10 | 7.6 | 0.00029 | 39000
11 | B11 | 15 | 0.00056 | 38000
12 | B12 | 16 | 0.00061 | 39000
13 | B13 | 3.7 | 0.00014 | 39000
14 | B14 | 8.5 | 0.00033 | 39000
15 | B15 | 8.7 | 0.00035 | 40000
16 | B16 | 5.1 | 0.0002 | 39000
17 | B17 | 8.8 | 0.00032 | 36000

Row | Binder | Kd [nM] | koff [s⁻¹] | kon [M⁻¹ s⁻¹]
18 | B18 | 6.5 | 0.00023 | 35000
19 | B19 | 7.5 | 0.0003 | 40000
20 | B20 | 5.6 | 0.00024 | 42000
21 | B21 | 2.8 | 0.00011 | 37000
22 | B22 | 7.1 | 0.00028 | 40000
23 | B23 | 4.4 | 0.00017 | 38000
24 | B24 | 8.2 | 0.00032 | 39000
25 | B25 | 4.5 | 0.00017 | 37000
26 | B26 | 3 | 0.00012 | 39000
27 | B27 | 2.9 | 0.00012 | 41000
28 | B28 | 9.6 | 0.00038 | 39000
29 | B29 | 7.7 | 0.00033 | 42000
30 | B30 | 15 | 0.00056 | 37000
31 | B31 | 18 | 0.00067 | 37000
32 | B32 | 14 | 0.00055 | 39000
